Test: soluble on expression in E. coli; label from the status in PepcDB or PDB records

Soluble on expression in E. coli, not soluble:
MGSDKIHHHHHHMLINADFSCRAALAPEHYQWVQSPQNGVERVMLDRVGAEKARATSIVRYAPESNFPYHLHPGGEEILVLSGTFSADNSDYPAGWYLRNPPKSGHQPYSNVGAVIFVKLWQMTADETHHVAIDTKDAKNWHRQGNREVCHLFLDTSEQVSLQRIEAGEILFPETIARGAELLVIEGELIEDSMLDKGQSYKKGSWIRLPVDATSPIVAGANGATVYLKTGHLSRIIGIDVY
MGSDKIHHHHHHMLLPLSSQNVIQHLQAADLCSSEDGKSDIVELPISKKNYNLVVNLADNRKLLVKQERGVENDGILHELFNEWLFHQLLQKFPILGNISAIAPLVVHFDEENSILVRSYLSEYLDLAEFYQNPNVFPKEIAAAIGTTLAALHRTTFQGKEYRDFMATAPQGQFRYHFYNPAQGISSLNPEIFGRIPTEALKFHVLYQCYESLEAAIADLAYEWDACCLTHNDLKLNNILIHSRWNQLDNCLVQLIDWEACTWGDPAFDLGTILASYLEIWLESLVVDPTLELAESLELVMIPLEEIQPSLVALLQAYLQAFPMILEYHPNFLVRVIKFIGLALIHQIQDKINNCKLFDNSHLYMLQVAKNLLTMPEQSILSIFGISEAEILSPVAKVPQVSHPEKEKQLVPLYYEKTRLRGC
MGSDKIHHHHHHMLLRKDEVFYIDLPRKIEKEEKVKEEKTKENAAEEIQRIEKMREKILSEAQEEARKIIEGARKDAEEILSNASSEAEALKLEAKKVLEEAKTMKNDFQKYILALKEKIQKQVNQRIEEILPELLDILRILFKKILEKEMDESTVERKLRSALSKVVGIKNVKIRINPEDAKKLDLSEVSKETLIPDPNVERGGVIVETDFGILDKTFSHQWELVEDIFEEVVGFEGHPERAEKEVE
MGSDKIHHHHHHMLLTTRPPSPDSIPCCAGCSMARVCLAGNCDSDGEGPADGLAQRVIRLRKGEPLYLLGDPLAALFAVRVGTVKTHVATEDGRTQVVGFHFPGEVVGLDSIGRRQYASYATALEDTKVCMIPMDVLRPLAACTPALASRVFRALDGYAQRTRALQTLLALMTAEERLVTFLLWISEGLAARGFSSSEFILRMSREEIGSYIGLTLETVSRQFSRLAECGLIRVKHRSVALVDKAGLRAIADRSAISPIPPGTNRRRGGEQRVPAQALRTSAPAWATRTQPATAAMQADNPKINPFAWEAGNGQQ
MGSDKIHHHHHHMLNETKELLKDYYGIDDDTFKLSQEIMEEIKDKFEEIKEIREYNQYKVLKAMQESKLSDMHFNWTTGYGYNDIGREKIEEIYSKVFNTEDALVRPIIVNGTHALTLCIQGIVRPGDEILSVTGRPYDTLEGVIGIREEKGSLKEYGVTYDDVDFLEDGNLDLEGIKSKINDRTKLVMIQRSKGYSWRKSLSISDIKEAIEVIKSVKPEAIVMVDNCYGEFLDTKEPTDVGADVMAGSLIKNPGGGLALTGGYIAGRKDLIELISYRMTSPGIGKECGLTFGTTRNVLQGFFLAPYIVSQAVMGAIFCSRAFEKLGYDVLPKYDDLRSDIIQCIRLNNADEVISFCEGIQEAAPVDSYVKPVPWDMPGYESEVIMAAGAFIQGSSIELSADAPIRPPYNVYFQGGLTFDHSKMGTLKAIEFIKKLKK
MGSDKIHHHHHHMLNKVLTHLDENIEKSLERLFSLLRFQSISTDFAYKDECRKAADWLVEDLKSIGFKASRRDTSGHPMVVGHHPGPSDDCLHVLFYGHYDVQPVDPLNLWEDDPFTPSLKEREGEKVICARGASDDKGQLMTFIEACRAFKKETGQLPVRVTVLFEGEEESGSSSLVPFLKANKDELKADCALVCDTSMWDADTPSVSVALRGILGEEIIITAANRDLHSGYFGGAAANPIRILTKVLAGLHDENNRVTLPGFYDGVEETPPHILQSWNALNCTAENFLGPIGLSLPAGEKGRSVLELVWARPTAEINGISGGYEGEGIKTVIASQASAKVSFRLVHKQDPEKIRQAFRDYVCSLIPADCSVVFKEHGASPAIQLPYDSPFIKTAKDALSQEWNNPALLTVMGGSIPIVADFQSILDMETLLVGFALADDRIHSPNEKYNLKSFHKGQRSWARILATLAKTGG
MGSDKIHHHHHHMLNMDFSRRVVIRTHEQHWVPSPAAGVERKPLAREEAERGHATSVVRYKPGSSFSTHEHPLGEEILVLEGVFSDETGHYPAGTYIRNPPGSSHAPFSEEGCTLLVKLHQFDPRDTATVRIDTNSGHWLPGIGGLQVMPLHEFEHERVALVKWPPNEAFQPHRHFGGEEIFVLSGEFRDEHGRYPAGSWIRSPHMSQHHPFVEQETVIWVKTGHLPVNHSPET
MGSDKIHHHHHHMLNRVHLNGLRAVETVARLGSLAAAAGELNVSVSAVSQQISRTEKQLGQALFERTASGLVLTEFGAAFATRLGAGFRELAQAVALADEASQCTLVVSVAPAFASKWLLPRLSRHFDRHPNVLLRIDASVRLANLDHSDVDIAIRLGDGEWPGVRAELLLAQEVFPVCAPSIAAKLRSIEDLAQTCAITDERSMISWDSWFKAAGVEPVTFLKGARFTDPMLCLESAIAGHGVMLAWQLLTADALTDGRLVAPFGVRAESGLGYWMVTSATKAESRKVHDFKAWIREEIETTMAQFRTLDSAA
MGSDKIHHHHHHMLNTKDKQPILLIIFGQKMKEYDDLIRSTVERLSKRDRPVSILISKELNHVIHHYDAQFENLETLVGYINTHEDSLIYPLCLDKNHELFQEFLAWQSHYSRQYISDNLSEKSVQAIDNNQDFVQVDCLVMRDSLNNCLYVSDLEYIESNKTTGKSLAIVPSQTLSDAARQTIRDVAFDVCRKANIIGVCYFSFLIDLNSLDYHIISLSSGLSHQSILFETITTYPVLEIATKLTVGYTFSQLKHSYYPNTSAFLEPQLDYVATVSFSFEKVDYIFFARNIEQLFLNLLEASSHDHFPFLSDISEEDLMFALIQKKENRLAYLLEAFRRGFDLYDLSSVTKINPFYLDKCLHIVELYENLNKSQYNVDIYKEAKRYGFSDDYIASSWQISLIDMLEYRKKHSVAPVLKQVEQSSGVLTGHQIQYFRSYDWHSDYISSGCQKALIMVDKGYSLVKLNELIKQIKQTHLELLIVTNQPLLIEQLNDTSIIFDTIGIETILTIMGIEEVEEVYLLGESQADMFSKMKNFSISCQSI
MGSDKIHHHHHHMLNWSHLPAIKPKYLAITQFIKQAIQNGDLLPGQRLPAERELATLLHVDRSTVTRALLDLAAVGILVKKRGSGTFVAQLPHVNQLANKVNWQAFLENTTATRHATYQRKLAKARTTATVPLIDAAANELPTNLIPQLGTLTLDWQGFLTAQQQEERTGYLPLMQTINRYHTARQQFTLDRQSLIITGGAQQALLLILNSLLQPGDAVAFVTPSYFSASAVFSAAGVRAYTIPTTTLGLDLTALETAIIKHRIKLLILNPTLQNPTGRILPLAERQAILALCQRYQVAIVEDDVFGWLVDRDIAVPPFKALAPDNVIYISSLSKLLGSNTRIGWIVAPQAIGERIRQVQKNLDLVPSLLAQVMVDHALNSPEFSLGVTQLTTQLAQRRQNVTAILRQLRPDWHFVTPLGGFYLWVTQADRNVFEHLLEQHLLVTPGPIYGADRSAFRFNFAGLDYRQQRLLIQRLS
MGSDKIHHHHHHMLPGSRSLSKELGINRKTVQAVYEELEAQGWLVTRPRKGTFVADVLPEKKPHIEPRADRKVSNKPIIQQVAQRPHNDGVPDPRLIPYELFSRAYRHALIKITQNQYMGYGDPRGMAELRQALKQMLSMERFMNVAEDEICVVRGSQMGIFLASRALPNRQGVIVVEELYYPSAVKAFQSNGFQVVSVKLDDQGIVIEDLERILKEHSVAAIYTTPHHQYPTTVTMTMSRRLQLLELSKKWGFYIIEDDYDHEFHYDSRPMPPLASLPHSELVIHVGSLSKVFAPGIRLGYIVAAPTIIQTITEDILLIDRQGNNITELALADLMQRGEIKRHIRKMKKIYQLRRDHALAEFQRVFAESIEIQPPAGGMALWVKFQKSFTQDQLIKLKELNIDTEQKFKQKECANHCIRFGFAALSEKEITSLIETLNEAL
MGSDKIHHHHHHMLPPLDSDLMRGFLAVVETGSLTRAGHRLGRTQSAISMQIRKLEDSLGQSVFVREPRGVRLTERGKQLLPYAQRVVGLLDEAAIALREKPLSGPVRVGVPDEYIQGVLPAVLSAFSQRHPETQVTLRCDFSAPQLEALNSDKIDLAVIYEGYSTDEVEVLAVDPTVWVTSISHAQHLHRPLPISIYFSSDWCRDFALHSLEQIGIPYFAAFECDTSGGMRSAVSNGIAVAPLARSSIPPGCRELTAEDGFMGVDNARVVLRRNPAGSSTAIEAMVATLREAFWPLTKNGGL
MGSDKIHHHHHHMLPRLLDRCAGMVSHDWTALDRDLRRFLPKKSVVSKRQELLVYDCDGLTIDRHCPPLAVLPETTEEVSQILACCHRHSIPFVARGSGTGLSGGALVEQEALLVVTSRMRRILSMDLDNHTITVQPGVINSWVTRAVAGEGFYYAPDPSSQVVCSIGGNVAENSGGVHCLKYGVTSNHVLGLEVVLADGTVTLLGGGLPEHAELDLRGAFIGSEGTLGIATAITLRLLRAPQHVTVLLADFPTMESAGEAVCQVTAAGVLPAGMEIMDNFMINAVNDLFGFDEYPRDAAAVLLIELDGQAAEVTVAADQASGLCSKAGARTIRRAEEPADRALLWKGRKSAFAAVGQISPTYYVQDGVVPRSTLPRVLMAIERLSREYELPVANVFHAGDGNLHPLILYNADTPDVESRVRDLGSAILRECLDVGGSITGEHGVGADKRCYLDWMFAADDLSTMKLLRRAFDPDGRANPDKIFPTPKSCGESARRQVILTSEGLEMPSEAKAF
MGSDKIHHHHHHMLQFIPVFDGNTIAVRASGKLTLEDFQQFFPQLETQIKRLGKISLLFEFDNFSGWDLDAAIDDIKFGMKHLSDFERIAMVGDKSWEHWMALIAKPFLISSEVRYFNRENLQQAWDWLREKQEFEKAVEQLQPYQNIVVAVDFSLYSKHACKRAIELANYYQASLTLLNVVPEVLAYTLYGDPVGYNVVDLDIIKDQNKKNIDAAQFQMKAFVNDLDTNFPIETKVICGEINYGVVSFLEAQHIDLAIFGAKKKKGINKLLGSVPHYVQNHSRCEILIVPVQGPVF
MGSDKIHHHHHHMLRAELHVHSSFSDGRDGVRKILEAAVEKKLEVIAITDHDTVQGSLEAIDIVKEEHLPLKVLPGCEVTASTGHVLVYGITKDIEPRMSVEETCKIARELGGVCFLAHPFDFIRKGSVRLKDFKMVDGIETFNAKSYFNFLAKRYAKKLSKPEIAGSDAHSARAVGLAINYLPDEFDLLNALFHARFDGRRVSIRERLAFLRFRLNQRL
MGSDKIHHHHHHMLRSLPVLMYHYISRVHDSIAVHPDQFEDHCRGMAAEGWRGVSLAEAEAFLAEGTPLPERSVLITFDDGFLDNYVHALPILEKYGHCGTVFATAGKLETAAGLRPTLADVWSGRIPAEGLPRVDAPFVKHRLGFDERHDLFLNWDEARHAESTGTLAVAAHSMWHRSVFTSASYEGFYAPQRRGRTFDRVEGDVPWGLPRFKVGPALRERAFLPSAELLHAIRETVPQDKDGAYAFFSDTAATERLMHTVEAFGADGLGRFETDAERTERMYREMRDCKQLLENELGHPVTTFCWPWGAFCDEALAIGRELGFRVFLTTLMGSNPPSAPLAVHRFKAKAKPWSWLRLRLHVYSRPLLANLYARMRL
MGSDKIHHHHHHMLSAKIEVYDSRFYQLVGTEARLEELFDKAIWAEGPVWLEKQQAVIFSDVKGNTMYRWTAEQGTQIFRQPSQFANGNAVDAAGNLITCEHGRRAISLTDHAGNIRVLVNKLEGKRLNSPNDVVVKSDGTIWFTDPPYGILSDAEGKKSPSEIIGCYVYCYDPITDDIHIATFNVMRPNGLAFCENETKLVVADMSVVEFKRTGLHHLVVFDVIDNQLYNRTSIAAISPGIPDGFCIDHNNVIYCSCETGLLVLLLDGTFLGRILLDKTASNCTFGLDQKTLFITATNSLYCLTFK
